Data published in patent US12018084B2, “Anti-CXCR2 antibodies and uses thereof” (Cephalon LLC, priority 2018, dated 2024).
Residue numbers refer to the chain shown, from its start. Names and notes keep the numbering of the source.

T1: Human CXCR2 (Homo sapiens, UniProt P25025)
T1 sequence (P25025 1-360): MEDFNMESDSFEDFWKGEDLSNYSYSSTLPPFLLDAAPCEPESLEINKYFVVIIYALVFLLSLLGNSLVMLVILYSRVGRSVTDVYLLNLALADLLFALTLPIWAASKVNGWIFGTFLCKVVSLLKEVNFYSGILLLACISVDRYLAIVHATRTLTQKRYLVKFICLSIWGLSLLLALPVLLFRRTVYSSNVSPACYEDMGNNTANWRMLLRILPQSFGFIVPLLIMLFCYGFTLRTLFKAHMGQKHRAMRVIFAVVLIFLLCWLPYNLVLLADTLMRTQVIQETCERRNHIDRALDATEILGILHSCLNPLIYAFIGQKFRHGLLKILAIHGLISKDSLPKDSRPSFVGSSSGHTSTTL

T2: Murine CXCR2 (Mus musculus, UniProt P35343)
T2 construct: expressed in transfected cells
T2 sequence (P35343 1-359): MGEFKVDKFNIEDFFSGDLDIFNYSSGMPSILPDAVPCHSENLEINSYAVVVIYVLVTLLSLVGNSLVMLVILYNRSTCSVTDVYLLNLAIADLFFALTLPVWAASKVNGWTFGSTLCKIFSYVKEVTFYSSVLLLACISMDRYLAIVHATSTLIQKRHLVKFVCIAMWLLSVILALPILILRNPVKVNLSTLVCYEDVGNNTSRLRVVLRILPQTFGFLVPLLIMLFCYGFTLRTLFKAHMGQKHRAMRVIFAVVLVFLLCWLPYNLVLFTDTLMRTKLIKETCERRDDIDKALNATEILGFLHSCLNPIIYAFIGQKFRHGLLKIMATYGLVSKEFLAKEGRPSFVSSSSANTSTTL

B1: BKO-1B10: VH SEQ ID NO: 3, VL SEQ ID NO: 4 (antibody, V domains shown)
VH: QLQLQESGPGLVKPSETLSLTCTVSGGSIRTSSYYWGWIRQPPGKGLEYIGSIYYSGTTYYNPSLKSRVTMSVDTSKNQFSLKLSSVTAADTAVYYCARHGRVREVPPFDYWGQGTLVTVSS
VL: SSELTQDPAVSVALGQTVRITCQGDSLRYYYASWYQQKPGQAPVLVIYDENSRPSGIPDRFSGSSSGNTASLRITGTQAEDEADYYCNSRDTSGNHWAFGGGTKLTVL
modifications: BKO_1B10_VH; BKO_1B10_VL
B2: 103c: VH SEQ ID NO: 163, VL SEQ ID NO: 110 (antibody, V domains shown)
VH: EVQLLESGGGLVQPGGSLRLSCAASGFTFSSSTQSWVRQPPGKGLEWVSAISGSGGSTYYADSVKGRFTISRDNSKNTLYLQMNSLRAEDTAVYYCAIQMGYWGQGILVTVSS
VL: QSALTQPPSASGSPGQSVTISCIGTSSDVGGYNYVSWYQQHPGKAPKLMIYEVSKRPSGVPDRFSGSKSGNTASLTVSGLQAEDEADYYCSSYAGSNNFGVFGGGTKLTVL
modifications: 4A8 VH Variant 103 M34Q_A40P_R53S_R55G_N56S_ R75K; 4A8 VL variant c D41G_N52S_N94S
B3: BKO-3F4: VH SEQ ID NO: 15, VL SEQ ID NO: 16 (antibody, V domains shown)
VH: B2 VH with F27L, S32Y, T33A, Q34M, P40A, S57K, T58I, M100V, I107T
VL: B2 VL with I20M, I23T, S36T, D62A, S96P
modifications: BKO_3F4_VH; BKO_3F4_L11_A11_VL
B4: 104c: VH SEQ ID NO: 164, VL SEQ ID NO: 110 (antibody, V domains shown)
VH: B2 VH with M100K
VL: B2 VL
modifications: 4A8 VH Variant 104 M34Q_A40P_R53S_R55G_N56S_ R75K_M96K; 4A8 VL variant c D41G_N52S_N94S
B5: BKO-2D8: VH SEQ ID NO: 9, VL SEQ ID NO: 10 (antibody, V domains shown)
VH: B2 VH with F27Y, S30T, Q34M, P40A, S49T, S54R, S57R, M100L, Y102N
VL: B2 VL with I23T, V29I, M49V, S54N, K55M, D62A, S96N, N97D, T109S
modifications: BKO_2D8_VH; BKO_2D8_VL
B6: 105c: VH SEQ ID NO: 165, VL SEQ ID NO: 110 (antibody, V domains shown)
VH: B2 VH with M100A
VL: B2 VL
modifications: 4A8 VH Variant 105 M34Q_A40P_R53S_R55G_N56S_ R75K_M96A; 4A8 VL variant c D41G_N52S_N94S
B7: BKO-9A8: VH SEQ ID NO: 47, VL SEQ ID NO: 48 (antibody, V domains shown)
VH: B2 VH with P14T, S32N, Q34M, P40A, S57R, A61V, N84H, M100L, Y102S
VL: B2 VL with I23T, G31A, S54T, S96N
modifications: BKO_9A8_H3_F03_VH; BKO_9A8_L1_H02_VL
B8: BKO-1D1: VH SEQ ID NO: 5, VL SEQ ID NO: 6 (antibody, V domains shown)
VH: B2 VH with G26K, F27L, S30K, S31N, T33A, Q34M, P40A, S52T, S57R, V93I
VL: B2 VL with I23T, S54N, D62A
modifications: BKO_1D1_VH; BKO_1D1_VL
B9: BKO-8H10: VH SEQ ID NO: 43, VL SEQ ID NO: 44 (antibody, V domains shown)
VH: QVQLVQSGAEVKKPGASVKVSCKASGYTFTGYYIHWVRQAPGQGLEWMGRIKPDSGGTNYAQKFQGRVTMTRDTSITTAYMELSRLRSDDTAVYYCARGGSGWDYWGQGTLVTVSS
VL: QSALTQPPSASGSPGQSVTISFTGTSRDVGDYNYVSWYQQHPGKAPKLMIYEVNKRPSGVPDRFSGSKSGNTASLTVSGLQAEDEADYYCSSYAGSNTYVFGTGTKVTVL
modifications: BKO_8H10_VH; BKO_8H10_VL
B10: BKO-10G10: VH SEQ ID NO: 51, VL SEQ ID NO: 52 (antibody, V domains shown)
VH: QLQLQESGPGLVKPSETLSLTCTVSGGSIRRSSYYWGWIRQPPGKGLEWIGSFYNSGNTYYKPSLKSRVAISVDTPKNQFSLKLSSVTAADTAVYYCARGYSSGGFDPWGQGTLVTVSS
VL: QSALTQPASVSGSPGQSITISCTGTSSDVGGYNYVSWCQQHPGKAPKIMIFDVSNRPSGVSNRFSGSKSGNTASLTISGLQAEDEADYYCSSYTSSSTWVFGGGTRLTVL
modifications: BKO_10G10_VH; BKO_10G10_VL
B11: BKO-4F10: VH SEQ ID NO: 19, VL SEQ ID NO: 20 (antibody, V domains shown)
VH: QVQLVQSGAEVKKPGASVKVSCKASGYTFTGYYIHWVRQAPGQGLEWMGRFNPNNGGTNYAQRFQGRVTMTRDTSISTAYMELSRLRSDDTAVYYCARGPTIRLWFDNWFDSWGQGTLVTVSS
VL: B10 VL with C38Y, I48L, F51Y, V60I, R106K
modifications: BKO_4F10_VH; BKO_4F10_VL

Experiments:
Human CXCR2 [1] = target: T1, Human CXCR2; assay: cELISA of hybridoma supernatants on cells transfected with human CXCR2; format: binding; design: host or cells: Expi293F cells, vector pTT5; conditions: hybridoma supernatant; fluorescence units relative to positive control (100%)
Experimental: To generate hybridomas which produced monoclonal antibodies to human CXCR2, splenocytes and/or lymph node cells from animals with the highest anti-CXCR2 titres were isolated and fused to mouse myeloma cells (ATCC, CRL-1580). Cells were plated at approximately 1×10^5 cells/mL in flat bottom microtiter plates, followed by a two week incubation in selective medium (10% FCS and 1×HAT (Sigma)). Hybridomas were expanded by serial passage through four media changes in 96-well plates (96-well stages 1 to 4), then, where required, expanded into T25 and T75 flasks. […] Bound antibodies were detected using a goat anti-rat IgG-HRP (Southern Biotech, #3030-05) secondary antibody.
A panel of hybridomas was generated using lymph nodes and spleen cells from the transgenic rats engineered to express human variable region sequences. A cellular ELISA (cELISA) was used to detect human CXCR2 binding activity in supernatants taken during the expansion process for the hybridomas (Table 5). Hybridomas that retained expression of antibodies that bound CXCR2 after several passages were selected for DNA sequencing.

Murine CXCR2 = target: T2, Murine CXCR2; assay: cELISA of hybridoma supernatants on cells transfected with murine CXCR2; format: binding; conditions: hybridoma supernatant; fluorescence units relative to positive control (100%)
Human CXCR2 [2] = target: T1, Human CXCR2; assay: Tango CXCR2-bla U2OS cell-based β-arrestin recruitment assay; design: The beta-arrestin/TEV protease fusion and the beta-lactamase reporter are separate parts of the cell line; conditions: CXCL1 or CXCL8 as agonist
Source text: Cells were thawed, propagated, cultured and frozen according to the manufacturer's directions.
Preparation of Tango™ CXCR2-bla U2OS cells for use in cell-based assays: The manufacturer's protocol was altered to make use of 96-well plates instead of 384-well plates. Briefly, dividing cells were harvested one day prior to use. Cells were harvested and resuspended in assay medium (100% FreeStyle™ Expression Medium; Life Technologies; Cat #12338-018) at a viable cell density of 312,500 cells/mL. 128 μL of cell suspension was added per well in 96-well black-walled, clear bottom tissue culture-treated plates. Cells were incubated for 16-20 hrs at 37° C. in an atmosphere of 5% CO2 prior to use in assays.
Tango™ assay procedure: Assays were set up and run as described in the manufacturer's protocol. For antagonist assays, agonists were used at concentrations in the EC50-EC80 range. Assays were read using a FlexStation® 3 (Molecular Devices) fluorescence plate reader configured with the parameters given in Table 4. The blue/green emission ratio for each well was calculated by dividing the blue emission values by the green emission values. All inhibition curves were fitted using a four-parameter dose-response using GraphPad Prism™ (Version 7.01).
The Human CXCR2 Tango™ cell line was used to assess the ability of antibody BKO-4A8-101c to inhibit β-arrestin recruitment to agonist-activated CXCR2. All human ELR+ chemokine CXCR2 ligands were tested in antagonist dose response assays using calculated EC50 values of agonist.
The commercially available reporter cell line Tango™ CXCR2-bla U2OS (ThermoFisher Scientific) was used to assess the ability of the anti-CXCR2 antibodies to inhibit β-arrestin recruitment to agonist-activated CXCR2. Agonists were provided at their assay EC50 concentration for antagonist assays.

Molecule	Human CXCR2 % Positive (Human CXCR2 [1]) [%]	Murine CXCR2 % Positive (Murine CXCR2) [%]	potency compared to the parental antibody (Human CXCR2 [2])
B1	75	4	
B2			reduced potency
B3	86	42	
B4			reduced potency
B5	100	7	
B6			reduced potency
B7	124	8	
B8	67	7	
B9	81	8	
B10	89	4	
B11	118	7	
